Patent publication US20260201030A1, “ANTIBODY, ANTIBODY-DRUG CONJUGATE THEREOF AND USE THEREOF” (EVOPOINT BIOSCIENCES CO., LTD., priority 2021, published 2026)

Legend:
[1] = molecular target: T1, human Claudin18.2 (Homo sapiens, UniProt P56856); assay: Cell-based ELISA affinity on NUGC4-Claudin18.2 (human) cells; type: binding
T1 construct: expressed in transfected cells

[2] = molecular target: T1, human Claudin18.2; assay: Cell-based FACS affinity on NUGC4-Claudin18.2 (human) cells; type: binding
Procedure: (§1) The affinity of the anti-human Claudin18.2 humanized antibodies was detected by flow cytometry. The experimental procedures were as follows: The adherent cultured HEK293T-Claudin18.2 (human), NUGC4-Claudin18.2 (human) and NUGC4 cells were digested, collected by centrifugation, and washed three times with pre-cooled PBS. The cells were resuspended in 1% BSA (in PBS) and added to a 96-well pointed bottom plate at 3×10^5 cells/well, with a volume of 50 μL per well. Each test antibody was diluted with 1% BSA (in PBS) (starting at 100 μg/mL, diluted in a 3-fold gradient, for 10 concentration points). The test antibody subjected to gradient dilution was added to the cells at 50 μL/well, and the mixture was well mixed and incubated at 4° C. for 1 h. The cells were collected by centrifugation, washed three times with pre-cooled PBS, and resuspended in 50 μL of 1% BSA (in PBS). 1 μL of a fluorescent secondary antibody (Biolegend-410712) was added to each well, and the mixture was well mixed and incubated at 4° C. for 0.5 h. The cells were collected by centrifugation, washed three times with pre-cooled PBS, resuspended in 200 μL of PBS, and assayed on a machine.

[3] = molecular target: T1, human Claudin18.2; assay: Cell-based FACS affinity on NUGC4 cells; type: binding
Procedure: as §1

[4] = molecular target: T2, mouse Claudin18.2 (Mus musculus, UniProt P56857); assay: FACS species affinity on HEK293T-Claudin18.2 (mouse) cells; type: binding; conditions: cell-based FACS
T2 construct: expressed in transfected cells
T2 sequence (P56857 1-264 isoform P56857-3): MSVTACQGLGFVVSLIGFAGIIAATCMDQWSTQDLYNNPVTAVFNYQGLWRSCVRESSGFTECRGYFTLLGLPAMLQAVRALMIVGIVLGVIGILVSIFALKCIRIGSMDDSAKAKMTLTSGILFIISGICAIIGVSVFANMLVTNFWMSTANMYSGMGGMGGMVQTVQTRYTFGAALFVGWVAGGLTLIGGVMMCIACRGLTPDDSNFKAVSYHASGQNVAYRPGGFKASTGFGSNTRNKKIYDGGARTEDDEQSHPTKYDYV
Procedure: (§2) The affinity of the anti-human Claudin18.2 humanized monoclonal antibodies for Claudin18.2 of different species was determined by flow cytometry (FACS). The experimental procedures were as follows: HEK293T-Claudin18.2 (cynomolgus monkey) cells, HEK293T-Claudin18.2 (mouse) cells and HEK293T-Claudin18.2 (rat) cells were digested, collected by centrifugation, washed three times with pre-cooled PBS, resuspended in 1% BSA (in PBS), and added to a 96-well pointed bottom plate at 3×10^5 cells/well. Each antibody subjected to gradient dilution was added, and the mixture was incubated at 4° C. for 1 h. The cells were washed three times with pre-cooled PBS, and then 1 μL of a fluorescent secondary antibody (APC: Biolegend-410712) was added to each well. The mixture was incubated at 4° C. for 0.5 h, and the cells were washed three times with pre-cooled PBS, then resuspended, and assayed on a flow cytometer.

[5] = molecular target: T3, rat Claudin18.2 (Rattus norvegicus, UniProt Q5I0E5); assay: FACS species affinity on HEK293T-Claudin18.2 (rat) cells; type: binding; conditions: cell-based FACS
T3 construct: expressed in transfected cells
T3 sequence (Q5I0E5 1-261 isoform Q5I0E5-2): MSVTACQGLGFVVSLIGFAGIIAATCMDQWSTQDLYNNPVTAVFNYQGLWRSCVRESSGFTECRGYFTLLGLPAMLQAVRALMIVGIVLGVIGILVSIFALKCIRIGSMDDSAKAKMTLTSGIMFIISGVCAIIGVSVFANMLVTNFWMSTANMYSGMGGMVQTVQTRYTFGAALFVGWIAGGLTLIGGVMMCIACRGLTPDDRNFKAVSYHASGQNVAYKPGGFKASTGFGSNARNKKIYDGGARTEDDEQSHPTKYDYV
Procedure: as §2

[6] = molecular target: T4, human Claudin18.1 (Homo sapiens, UniProt P56856); assay: FACS specificity of humanized antibodies on HEK293T-Claudin18.1 (human) cells; type: binding; conditions: antibody 50 μg/mL, PE secondary antibody
T4 construct: expressed in transfected cells
Procedure: The specificity of the anti-human Claudin18.2 humanized monoclonal antibodies was determined by flow cytometry (FACS). The experimental procedures were as follows: HEK293T-Claudin18.1 (human) cells were digested, collected by centrifugation, washed three times with pre-cooled PBS, resuspended in 1% BSA (in PBS), and added to a 96-well pointed bottom plate at 3×10^5 cells/well. Each test antibody with a final concentration of 50 μg/mL was added, and the mixture was incubated at 4° C. for 1 h. The cells were washed three times with pre-cooled PBS, and then 1 μL of a fluorescent secondary antibody (APC: Biolegend-410712 or PE: BioLegend-410708) was added to each well. The mixture was incubated at 4° C. for 0.5 h, and the cells were washed three times with pre-cooled PBS, then resuspended, and assayed on a flow cytometer. For reference, anti-human Claudin18.1 positive control antibodies (positive control antibody-1 and positive control antibody-2) were included in the experiment.

[7] = test system: HEK293T-Claudin18.2 (human) cells; assay: ADCC activity, fluorescein reporter system (Jurkat-NFAT-CD16a); type: cell-based; conditions: HEK293T-Claudin18.2 (human) target cells, 5 h
Procedure: ADCC activity of the anti-human Claudin18.2 humanized monoclonal antibodies was detected by a fluorescein reporter system. The experiment was carried out using a Rhinogen® Bio-Glory One-Step Firefly Luciferase Assay kit (Suzhou Rhino Bio, RA-GL04), following the manufacturer's instructions. The experimental procedures were as follows: HEK293T-Claudin18.2 (human) cells were digested, collected by centrifugation, resuspended in DMEM+1% FBS, and then plated at 50000 cells/well. Jurkat-NFAT-CD16a cells were collected by centrifugation and resuspended in 1640+1% FBS, and then plated at 100000 cells/well. Each test antibody subjected to gradient dilution was added, and the mixture was incubated at 37° C. for 5 h. 50 μL of a Bio-Glory One-Step luciferase substrate was added to each well, and readings were taken on a microplate reader (MD, SpectraMax i3x).

B1: 25C7A5-HZ1: humanized anti-Claudin18.2 antibody, VH SEQ ID NO: 1, VL SEQ ID NO: 2, human IgG1/Kappa constant regions (antibody, V domains shown)
VH: QVQLVQSGAEVKKPGSSVKVSCKASGYTFTNYWLHWVRQAPGQGLEWMGMMHPISGSSNYAQKFQGRATLTVDKSTSTAYMELSSLRSEDTAVYYCARGLLSAMDYWGQGTLVTVSS
VL: EIVLTQSPATLSLSPGERATLSCKASENVKTYVSWYQQKPGQSPRLLIYEASNRYTGVPARFSGSGSATDFTLTISSLEPEDFAVYFCGQTYSFPPTFGQGTKVEIK
modifications: human IgG1/kappa constant regions
Question: With B1 as the molecule, how does the “NUGC4-Claudin18.2 EC50” value [1] read?
Answer: 0.1076 µg/mL

Question: And the “NUGC4-Claudin18.2 Maximum signal value” ([1]; OD450)?
Answer: 1.284

Question: And the “NUCG4- Claudin18.2 EC50” value [2]?
Answer: 3.192 µg/mL

Question: What about the “NUCG4- Claudin18.2 Maximum signal value” [2] of the same molecule?
Answer: 871132

Question: What about the “binding to NUGC4 (in words)” value [3] of the same molecule?
Answer: significant binding

Question: And the “HEK293T-Claudin18.2 (mouse) EC50” value [4]?
Answer: 0.9407 µg/mL

Question: And the “HEK293T-Claudin18.2 (rat) EC50” value [5]?
Answer: 1.672 µg/mL

Question: And the “Mean PE fluorescence signal value” [6]?
Answer: 583

Question: And the “Median PE fluorescence signal value” [6]?
Answer: 504

Question: What about the “Positive rate (%)” value [6] of the same molecule?
Answer: 0.54%

Question: What about the “ADCC activity EC50” value [7] of the same molecule?
Answer: 0.04649 µg/mL

B2: 25C7A5-HZ2: humanized anti-Claudin18.2 antibody, VH SEQ ID NO: 3, VL SEQ ID NO: 2, human IgG1/Kappa constant regions (antibody, V domains shown)
VH: QVQLVESGAEVKKPGSSVKVSCKASGYTFTNYWLHWVRQAPGQGLEWMGMMHPISGSSNYAQKFQGRATLTVDKSTSTAYMELSSLRSEDTAVYYCARGLLSAMDYWGQGTLVTVSS
VL: EIVLTQSPATLSLSPGERATLSCKASENVKTYVSWYQQKPGQSPRLLIYEASNRYTGVPARFSGSGSATDFTLTISSLEPEDFAVYFCGQTYSFPPTFGQGTKVEIK
modifications: human IgG1/kappa constant regions
Question: How did the “Mean PE fluorescence signal value” [6] turn out when B2 was run?
Answer: 559

Question: What about the “Median PE fluorescence signal value” [6] of the same molecule?
Answer: 471

Question: And the “Positive rate (%)” value [6]?
Answer: 0.55%

Question: What about the “ADCC activity EC50” value [7] of the same molecule?
Answer: 0.04875 µg/mL
